For one assay, the target named is human GLP-1 receptor (human, UniProt P43220 24-463). Put plainly: cell-based or functional assay.
In assay [1] the target is T1, human amylin-3 (a) receptor (human, UniProt P30988 25-474; O60896 24-148).
T1 sequence (looked up) 1: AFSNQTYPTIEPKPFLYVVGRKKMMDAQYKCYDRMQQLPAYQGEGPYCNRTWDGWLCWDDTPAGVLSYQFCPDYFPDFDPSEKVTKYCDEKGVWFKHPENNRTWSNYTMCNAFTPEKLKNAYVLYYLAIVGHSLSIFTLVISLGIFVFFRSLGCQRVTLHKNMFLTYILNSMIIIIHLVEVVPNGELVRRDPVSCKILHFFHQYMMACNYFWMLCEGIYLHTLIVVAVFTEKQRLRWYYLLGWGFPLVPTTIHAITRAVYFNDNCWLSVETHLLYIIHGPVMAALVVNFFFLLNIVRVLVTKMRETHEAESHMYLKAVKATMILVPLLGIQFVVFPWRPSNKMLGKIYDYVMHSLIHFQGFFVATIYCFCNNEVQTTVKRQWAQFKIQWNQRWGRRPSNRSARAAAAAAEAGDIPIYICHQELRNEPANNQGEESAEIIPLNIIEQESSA
T1 sequence (looked up) 2: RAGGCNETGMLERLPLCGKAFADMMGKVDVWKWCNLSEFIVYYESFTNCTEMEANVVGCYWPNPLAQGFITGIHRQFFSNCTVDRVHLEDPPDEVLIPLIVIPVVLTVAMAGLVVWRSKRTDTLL
Put plainly: cell-based or functional assay.

Experimental findings from patent US20260132182A1 (published 2026) are described below.

Starred links: 1 amine or outer side, 2 acyl side, 3 side chain; linkers in the order of their positions; H or OH if unused. Non-standard residues stand in square brackets, D forms with d. Groups on a side chain read outwards from the residue. *: point of attachment. Butyryl(4-SO2NHCO(CH2)16Tz) = O=C(CCCCCCCCCCCCCCCCc1nnn[nH]1)NS(=O)(=O)CCCC(=O)*; C20 diacid = O=C(O)CCCCCCCCCCCCCCCCCCC(=O)*; C18 diacid = O=C(O)CCCCCCCCCCCCCCCCC(=O)*; γGlu = O=C(O)[C@H](CCC(=O)[*:2])N[*:1]; C14 diacid = O=C(O)CCCCCCCCCCCCC(=O)*; Desaminohistidyl = O=C(CCc1c[nH]cn1)*; εLys = N[C@@H](CCCCN[*:1])C(=O)[*:2]; Trx = NC[C@H]1CC[C@H](C(=O)O)CC1; AEEA = NCCOCCOCC(=O)O; Aib = CC(C)(N)C(=O)O

B1: Compound 0141 (peptide)
peptide: H[Aib]EGTFTSDVSSYLEEQAAREFIAWLVRGRK([γGlu-C20 diacid])EASELSTAALGRLSAELHELATLPRTETGSGSP-NH2
Take B1: in the assay with human GLP-1 receptor, the “Human GLP-1R potency [EC50 (pM)]” value stood at 43.3 pM. The “Human AmyR3 potency [EC50 (pM)]” value in assay [1] came to 13.2 pM.

B2: Compound 0026 (peptide)
peptide: H[Aib]EGTFTSDVSSYLEGQAAK([AEEA-AEEA-γGlu-C18 diacid])EFIAWLVRGRGQEPGQAPEASELSTAALGRLSAELHELATLPRTETGSGSP-NH2
On to B2, for which the “Human GLP-1R potency [EC50 (pM)]” value with human GLP-1 receptor is 8.8 pM. For the same molecule, the “Human AmyR3 potency [EC50 (pM)]” value in assay [1] came out at 14 pM.

B3: Compound 0180 (peptide)
peptide: H[Aib]EGTFTSDVSSYLEEQAAREFIEWLVRGRK([εLys-AEEA-AEEA-γGlu-Trx-C20 diacid])EAEAEASELSTAALGRLSAELHELATLPRTETGSGSP-NH2
For the molecule B3, the “Human GLP-1R potency [EC50 (pM)]” value in the assay with human GLP-1 receptor turned out to be 6.4 pM. Besides, in assay [1], the “Human AmyR3 potency [EC50 (pM)]” value was determined as 37 pM.

B4: Compound 0146 (peptide)
peptide: H[Aib]EGTFTSDVSSYLEEQAAREFIEWLVRGK(Butyryl(4-SO2NHCO(CH2)16Tz))GGGASELSTAALGRLSAELHELATLPRTETGSGSP-NH2
B4: the “Human GLP-1R potency [EC50 (pM)]” value with human GLP-1 receptor was determined as 25.7 pM. Further, the “Human AmyR3 potency [EC50 (pM)]” value in assay [1] came out at 14 pM.

B5: Compound 0160 (peptide)
peptide: H[Aib]EGTFTSDVSSYLEEQAARK([γGlu-C18 diacid])FIAWLVRGRGGGGGGGGK([γGlu-C18 diacid])EASELSTAALGRLSAELHELATLPRTETGSGSP-NH2
In the case of B5, the “Human GLP-1R potency [EC50 (pM)]” value with human GLP-1 receptor is 11.9 pM. For the same molecule, the “Human AmyR3 potency [EC50 (pM)]” value in assay [1] was found to be 27.3 pM.

B6: Compound 0127 (peptide)
peptide: H[Aib]EGTFTSDVSSYLEEQAARK([AEEA-AEEA-γGlu-C18 diacid])FIAWLVRGK([AEEA-AEEA-γGlu-C18 diacid])GGEASELSTAALGRLSAELHELATLPRTETGSGSP-NH2
B6: the “Human GLP-1R potency [EC50 (pM)]” value with human GLP-1 receptor was 7.1 pM. Besides, the “Human AmyR3 potency [EC50 (pM)]” value in assay [1] was found to be 63.9 pM.

B7: Compound 0156 (peptide)
peptide: H[Aib]EGTFTSDVSSYLEGQAAK([AEEA-AEEA-γGlu-C18 diacid])EFIAWLVRGRGQAPGQEPEASELSTAALGRLSAELHELATLPRTETGSGSP-NH2
Regarding B7, the “Human GLP-1R potency [EC50 (pM)]” value with human GLP-1 receptor was determined as 22.6 pM. Further, in assay [1], the “Human AmyR3 potency [EC50 (pM)]” value turned out to be 22.6 pM.

B8: Compound 0147 (peptide)
peptide: H[Aib]EGTFTSDVSSYLEEQAAREFIEWLVRGK(Butyryl(4-SO2NHCO(CH2)16Tz))ASELSTAALGRLSAELHELATLPRTETGSGSP-NH2
As to B8, in the assay with human GLP-1 receptor, the “Human GLP-1R potency [EC50 (pM)]” value worked out at 36.8 pM. Also, the “Human AmyR3 potency [EC50 (pM)]” value in assay [1] amounted to 33.7 pM.

B9: Compound 0159 (peptide)
peptide: H[Aib]EGTFTSDVSSYLEGQAAK([εLys-AEEA-AEEA-γGlu-C18 diacid])EFIAWLVRGRGGGGGGGGGEASELSTAALGRLSAELHELATLPRTETGSGSP-NH2
As for B9, in the assay with human GLP-1 receptor, the “Human GLP-1R potency [EC50 (pM)]” value was 30.3 pM. The “Human AmyR3 potency [EC50 (pM)]” value in assay [1] was 19.3 pM.

B10: Compound 0132 (peptide)
peptide: H[Aib]EGTFTSDVSSYLEEQAAREFIAWLVRGK([AEEA-AEEA-γGlu-C18 diacid])GGEASELSTAALGRLSAELHELATLPRTETGSGSP-NH2
Consider B10, for which the “Human GLP-1R potency [EC50 (pM)]” value with human GLP-1 receptor stood at 3 pM. Also, the “Human AmyR3 potency [EC50 (pM)]” value in assay [1] was found to be 34.9 pM.

B11: Compound 0035 (peptide)
peptide: [Desaminohistidyl]AEGTFTSDVSSYLEEQAAREFIAWLVRGRK([AEEA-AEEA-γGlu-Trx-C20 diacid])EASELSTAALGRLSAELHELATLPRTETGSGSP-NH2
For the molecule B11, the “Human GLP-1R potency [EC50 (pM)]” value in the assay with human GLP-1 receptor is 16.7 pM. The “Human AmyR3 potency [EC50 (pM)]” value in assay [1] amounted to 16 pM.

B12: Compound 0039 (peptide)
peptide: HGEGTFTSDVSSYLEEQAARK([AEEA-AEEA-γGlu-C14 diacid])FIEWLVRGK([AEEA-AEEA-γGlu-C14 diacid])GEASELSTAALGRLSAELHELATLPRTETGSGSP-NH2
With B12, the “Human GLP-1R potency [EC50 (pM)]” value with human GLP-1 receptor is 34.8 pM. Further, in assay [1], the “Human AmyR3 potency [EC50 (pM)]” value was determined as 59.5 pM.

B13: Compound 0144 (peptide)
peptide: H[Aib]EGTFTSDVSSYLEEQAAREFIAWLVK([AEEA-AEEA-γGlu-C18 diacid])GRGGGGGEASELSTAALGRLSAELHELATLPRTETGSGSP-NH2
Take B13: the “Human GLP-1R potency [EC50 (pM)]” value in the assay with human GLP-1 receptor worked out at 7.1 pM. Besides, the “Human AmyR3 potency [EC50 (pM)]” value in assay [1] came out at 16.8 pM.

B14: Compound 0128 (peptide)
peptide: H[Aib]EGTFTSDVSSYLEEQAARK([AEEA-AEEA-γGlu-C18 diacid])FIEWLVRGK([AEEA-AEEA-γGlu-C18 diacid])GGEASELSTAALGRLSAELHELATLPRTETGSGSP-NH2
In the case of B14, the “Human GLP-1R potency [EC50 (pM)]” value with human GLP-1 receptor was determined as 9.7 pM. In assay [1], the “Human AmyR3 potency [EC50 (pM)]” value was determined as 110 pM.

B15: Compound 0157 (peptide)
peptide: H[Aib]EGTFTSDVSSYLEGQAAK([AEEA-AEEA-γGlu-C20 diacid])EFIAWLVRGRGQAPGQEPEASELSTAALGRLSAELHELATLPRTETGSGSP-NH2
On to B15, for which, in the assay with human GLP-1 receptor, the “Human GLP-1R potency [EC50 (pM)]” value is 28.7 pM. Further, in assay [1], the “Human AmyR3 potency [EC50 (pM)]” value stood at 18.4 pM.

B16: Compound 0007 (peptide)
peptide: H[Aib]EGTFTSDVSSYLEGQAAK([AEEA-AEEA-γGlu-C18 diacid])EFIAWLVRGRGGGEASELSTAALGRLSAELHELATLPRTETGSGSP-NH2
Turning to B16, the “Human GLP-1R potency [EC50 (pM)]” value with human GLP-1 receptor is 13.3 pM. For the same molecule, the “Human AmyR3 potency [EC50 (pM)]” value in assay [1] is 9.4 pM.

B17: Compound 0179 (peptide)
peptide: H[Aib]EGTFTSDVSSYLEEQAAREFIEWLVRGRK([AEEA-AEEA-γGlu-Trx-C20 diacid])EAEAEASELSTAALGRLSAELHELATLPRTETGSGSP-NH2
In the case of B17, the “Human GLP-1R potency [EC50 (pM)]” value with human GLP-1 receptor turned out to be 8.8 pM. Further, the “Human AmyR3 potency [EC50 (pM)]” value in assay [1] is 35.9 pM.

B18: Compound 0129 (peptide)
peptide: H[Aib]EGTFTSDVSSYLEEQAARK([AEEA-AEEA-γGlu-C18 diacid])FIEWLVRGRK([AEEA-AEEA-γGlu-C18 diacid])GGEASELSTAALGRLSAELHELATLPRTETGSGSP-NH2
On to B18, for which the “Human GLP-1R potency [EC50 (pM)]” value with human GLP-1 receptor was 1.2 pM. Moreover, the “Human AmyR3 potency [EC50 (pM)]” value in assay [1] came to 23.5 pM.

B19: Compound 0125 (peptide)
peptide: H[Aib]EGTFTSDVSSYLEEQAARK(Butyryl(4-SO2NHCO(CH2)16Tz))FIAWLVRGRGEASELSTAALGRLSAELHELATLPRTETGSGSP-NH2
With B19, the “Human GLP-1R potency [EC50 (pM)]” value with human GLP-1 receptor was determined as 8 pM. In addition, the “Human AmyR3 potency [EC50 (pM)]” value in assay [1] stood at 12.2 pM.

B20: Compound 0131 (peptide)
peptide: H[Aib]EGTFTSDVSSYLEEQAARK([γGlu-C18 diacid])FIAWLVRGRK([γGlu-C18 diacid])EASELSTAALGRLSAELHELATLPRTETGSGSP-NH2
For B20, the “Human GLP-1R potency [EC50 (pM)]” value with human GLP-1 receptor amounted to 16.1 pM. Besides, the “Human AmyR3 potency [EC50 (pM)]” value in assay [1] was determined as 14.5 pM.

B21: Compound 0142 (peptide)
peptide: [Desaminohistidyl][Aib]EGTFTSDVSSYLEEQAAREFIAWLVRGRK([γGlu-C20 diacid])EASELSTAALGRLSAELHELATLPRTETGSGSP-NH2
For the molecule B21, the “Human GLP-1R potency [EC50 (pM)]” value in the assay with human GLP-1 receptor amounted to 88.2 pM. Besides, the “Human AmyR3 potency [EC50 (pM)]” value in assay [1] worked out at 15.4 pM.

B22: Compound 0124 (peptide)
peptide: [Desaminohistidyl][Aib]EGTFTSDVSSYLEEQAAREFIAWLVRGRK(Butyryl(4-SO2NHCO(CH2)16Tz))EASELSTAALGRLSAELHELATLPRTETGSGSP-NH2
Turning to B22, the “Human GLP-1R potency [EC50 (pM)]” value in the assay with human GLP-1 receptor is 27.9 pM. The “Human AmyR3 potency [EC50 (pM)]” value in assay [1] came out at 24.4 pM.

B23: Compound 0145 (peptide)
peptide: H[Aib]EGTFTSDVSSYLEEQAAREFIAWLVRGRGK(Butyryl(4-SO2NHCO(CH2)16Tz))GGGASELSTAALGRLSAELHELATLPRTETGSGSP-NH2
Turning to B23, the “Human GLP-1R potency [EC50 (pM)]” value in the assay with human GLP-1 receptor was 11.9 pM. For the same molecule, the “Human AmyR3 potency [EC50 (pM)]” value in assay [1] came out at 16.5 pM.

B24: Compound 0636 (peptide)
peptide: H[Aib]EGTFTSDVSSYLEEQAARK([AEEA-AEEA-γGlu-γGlu-γGlu-C20 diacid])FIEWLVRGRQEAASELSTAALGRLSAELHQLATLPRTETGSGSP-NH2
Consider B24, for which, in assay [1], the “Human AmyR3 potency [EC50 (pM)]” value was found to be 8.5 pM.

B25: Compound 0151 (peptide)
peptide: H[Aib]EGTFTSDVSSYLEGQAAREFIAWLVRGRK([AEEA-AEEA-γGlu-C18 diacid])GGGGEASELSTAALGRLSAELHELATLPRTETGSGSP-NH2
As for B25, the “Human GLP-1R potency [EC50 (pM)]” value with human GLP-1 receptor came out at 10.4 pM. Also, the “Human AmyR3 potency [EC50 (pM)]” value in assay [1] stood at 9.5 pM.

B26: Compound 0106 (peptide)
peptide: H[Aib]EGTFTSDVSSYLEEQAARK([Ado-Ado-γGlu-C18 diacid])FIEWLVRGK([Ado-Ado-γGlu-C18 diacid])GEGQEPGGASELSTAALGRLSAELHELATLPRTETGSGSP-NH2
Regarding B26, the “Human AmyR3 potency [EC50 (pM)]” value in assay [1] was determined as 28.4 pM.
